Data on five molecules can be found in US20200240995A1, “KDAC VARIANTS AND USES THEREOF” (Max-Planck-Gesellschaft Zur Forderung Der Wissenschaften …, priority 2017, published 2020).

For this assay, the system named is Firefly luciferase modified at K529. Kind of assay: Dual luciferase reporter (DLR) assay in E. coli whole cell lysates. Conditions: normalized to Renilla luciferase, relative to wild-type CobB; for DLR activity [rel. to wild-type], AcK: AcK at K529; for DLR activity [rel. to wild-type], AlocK: AlocK at K529; for DLR activity [rel. to wild-type], BocK: BocK at K529; for DLR activity [rel. to wild-type], CrK: CrK at K529. The format is cell-based. The procedure: FIG. 3: Evolved CobB variants can activate Firefly luciferase modified at K529. Dual luciferase reporter (DLR) assays were performed with E. coli producing DLR with the indicated modification of K529 in the Firefly enzyme. Activities were normalized to genetically fused Renilla luciferase and plotted relative to the activity observed for wild-type CobB on the same substrate. A) CobB mutant able to discriminate crotonyl-over acetyl-lysine. B) CobB mutants active against protected forms of lysine.
The mutants isolated in the selections were tested using Firefly dual luciferase assays. E. coli DH10B ΔpyrF ΔcobB were transformed with plasmids expressing Firefly luciferase with the relevant modification on lysine-529 and the cobB mutants. Luciferase activity was tested directly in whole cell lysates and compared to the activity of wild-type cobB towards the modifications. The activities observed for the evolved KDAC variants correlated well with the activities observed in the uracil selections (FIG. 3).
Background: Reporter assays use an easily measured gene product as a stand-in for the process of interest.

B1: Debocylase-1: E. coli CobB mutant I131V V148L (protein)
chain: KPRVLVLTGAGISAESGIRTFRAADGLWEEHRVEDVATPEGFDRDPELVQAFYNARRRQLQQPEIQPNAAHLALAKLQDALGDRFLLVTQNVDNLHERAGNTNVIHMHGELLKVRCSQSGQVLDWTGDVTPEDKCHCCQFPAPLRPHLVWFGEMPLGMDEIYMALSMADIFIAIGTSGHVYPAAGFVHEAKLHGAHTVELNLEPSQVGNEFAEKYYGPASQVVPEFVEKLLKGLKAGSIA
modifications: Debocylase-1
notes: E. coli CobB mutant I131V V148L
In the case of B1, the “DLR activity [rel. to wild-type], AcK” value was 1.25 rel. to wild-type; the “DLR activity [rel. to wild-type], AlocK” value is given as 8.35 rel. to wild-type; the “DLR activity [rel. to wild-type], BocK” value is recorded as 8.65 rel. to wild-type; the “DLR activity [rel. to wild-type], CrK” value is given as 2.90 rel. to wild-type.

B2: Decrotonylase-1: E. coli CobB mutant A37R Y53G R56T I92R V148L (protein)
chain: KPRVLVLTGAGISAESGIRTFRAADGLWEEHRVEDVRTPEGFDRDPELVQAFGNATRRQLQQPEIQPNAAHLALAKLQDALGDRFLLVTQNRDNLHERAGNTNVIHMHGELLKVRCSQSGQVLDWTGDVTPEDKCHCCQFPAPLRPHLVWFGEMPLGMDEIYMALSMADIFIAIGTSGHVYPAAGFVHEAKLHGAHTVELNLEPSQVGNEFAEKYYGPASQVVPEFVEKLLKGLKAGSIA
modifications: Decrotonylase-1
notes: E. coli CobB mutant A37R Y53G R56T I92R V148L
B2: the “DLR activity [rel. to wild-type], AcK” value was 0.00 rel. to wild-type; the “DLR activity [rel. to wild-type], AlocK” value is listed as 0.02 rel. to wild-type; the “DLR activity [rel. to wild-type], BocK” value is 0.04 rel. to wild-type; the “DLR activity [rel. to wild-type], CrK” value is listed as 0.10 rel. to wild-type.

B3: Dealocase-1: E. coli CobB mutant A37S Y53W R56W I92V (protein)
chain: KPRVLVLTGAGISAESGIRTFRAADGLWEEHRVEDVSTPEGFDRDPELVQAFWNAWRRQLQQPEIQPNAAHLALAKLQDALGDRFLLVTQNVDNLHERAGNTNVIHMHGELLKVRCSQSGQVLDWTGDVTPEDKCHCCQFPAPLRPHVVWFGEMPLGMDEIYMALSMADIFIAIGTSGHVYPAAGFVHEAKLHGAHTVELNLEPSQVGNEFAEKYYGPASQVVPEFVEKLLKGLKAGSIA
modifications: Dealocase-1
notes: E. coli CobB mutant A37S Y53W R56W I92V
B3: the “DLR activity [rel. to wild-type], AcK” value is listed as 0.49 rel. to wild-type; the “DLR activity [rel. to wild-type], AlocK” value was 10.83 rel. to wild-type; the “DLR activity [rel. to wild-type], BocK” value is 2.88 rel. to wild-type; the “DLR activity [rel. to wild-type], CrK” value was 5.73 rel. to wild-type.

B4: Dealocase-2: E. coli CobB mutant A37G R56G I92V (protein)
chain: KPRVLVLTGAGISAESGIRTFRAADGLWEEHRVEDVGTPEGFDRDPELVQAFYNAGRRQLQQPEIQPNAAHLALAKLQDALGDRFLLVTQNVDNLHERAGNTNVIHMHGELLKVRCSQSGQVLDWTGDVTPEDKCHCCQFPAPLRPHVVWFGEMPLGMDEIYMALSMADIFIAIGTSGHVYPAAGFVHEAKLHGAHTVELNLEPSQVGNEFAEKYYGPASQVVPEFVEKLLKGLKAGSIA
modifications: Dealocase-2
notes: E. coli CobB mutant A37G R56G I92V
For the molecule B4, the “DLR activity [rel. to wild-type], AcK” value is on record as 1.19 rel. to wild-type; the “DLR activity [rel. to wild-type], AlocK” value is 10.23 rel. to wild-type; the “DLR activity [rel. to wild-type], BocK” value is listed as 0.77 rel. to wild-type; the “DLR activity [rel. to wild-type], CrK” value is 2.11 rel. to wild-type.

B5: Dealocase-3: E. coli CobB mutant I131S V148L (protein)
chain: KPRVLVLTGAGISAESGIRTFRAADGLWEEHRVEDVATPEGFDRDPELVQAFYNARRRQLQQPEIQPNAAHLALAKLQDALGDRFLLVTQNSDNLHERAGNTNVIHMHGELLKVRCSQSGQVLDWTGDVTPEDKCHCCQFPAPLRPHLVWFGEMPLGMDEIYMALSMADIFIAIGTSGHVYPAAGFVHEAKLHGAHTVELNLEPSQVGNEFAEKYYGPASQVVPEFVEKLLKGLKAGSIA
modifications: Dealocase-3
notes: E. coli CobB mutant I131S V148L
Take B5: the “DLR activity [rel. to wild-type], AcK” value is 0.35 rel. to wild-type; the “DLR activity [rel. to wild-type], AlocK” value is listed as 6.00 rel. to wild-type; the “DLR activity [rel. to wild-type], BocK” value is recorded as 0.65 rel. to wild-type; the “DLR activity [rel. to wild-type], CrK” value is 1.00 rel. to wild-type.
